The term pKi denotes the negative decadic logarithm of the Ki, by convention in mol/L.

pKi: −log10 of the molar value.

Data on 1 substance can be found in publication PMC8705320.

For assay [1], the target named is human cathepsin L (human) (UniProt P07711). Nature of the assay: enzyme inhibition kinetics (Dixon plot); cathepsin L 0.4 nM; Cystatin-Hv 8, 16 and 24 nM; Z-FR-AMC substrate at 1 Km and 2 Km; 50 mM sodium phosphate, 200 mM NaCl, 5 mM EDTA, pH 5.5, 6 mM DTT preactivation; 37 °C; fluorescence read each minute for 15 min.
Assay [2] addresses papain (UniProt P00784).
Chain of UniProt P00784 (P00784 134-345): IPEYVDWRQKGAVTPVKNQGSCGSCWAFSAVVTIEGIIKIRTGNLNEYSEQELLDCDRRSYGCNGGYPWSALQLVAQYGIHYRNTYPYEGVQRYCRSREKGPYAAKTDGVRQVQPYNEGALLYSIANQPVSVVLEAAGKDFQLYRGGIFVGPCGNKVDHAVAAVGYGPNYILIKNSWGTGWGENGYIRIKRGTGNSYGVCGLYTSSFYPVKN

The substance “Cystatin-Hv (recombinant cystatin of the leech Haementeria vizottoi) (natural protein)” had a pKi in assay [1] of 8.10. The IC50 of inhibition of papain activity (papain 21.4 nmol/L or 50 ng, 5 µM Z-FR-MCA substrate; 1, 5, 10 and 15 µg of pool 2 from ion-exchange chromatography) in assay [2] came out at 0.12 µM.
